Measured values from article PMC7802366 (The Journal of Cell Biology, 2021).

Tests used:
[1] = target: dynein heavy chain (DHC), native (human (endogenous in HEK-293), UniProt Q14204 1-4646); test: pull-down
[2] = target: p150^GLUED subunit of dynactin, endogenous (human (endogenous in HEK-293), UniProt Q14203-1 1-1278); test: pull-down
p150^GLUED subunit of dynactin, endogenous, sequence (Q14203 whole entry): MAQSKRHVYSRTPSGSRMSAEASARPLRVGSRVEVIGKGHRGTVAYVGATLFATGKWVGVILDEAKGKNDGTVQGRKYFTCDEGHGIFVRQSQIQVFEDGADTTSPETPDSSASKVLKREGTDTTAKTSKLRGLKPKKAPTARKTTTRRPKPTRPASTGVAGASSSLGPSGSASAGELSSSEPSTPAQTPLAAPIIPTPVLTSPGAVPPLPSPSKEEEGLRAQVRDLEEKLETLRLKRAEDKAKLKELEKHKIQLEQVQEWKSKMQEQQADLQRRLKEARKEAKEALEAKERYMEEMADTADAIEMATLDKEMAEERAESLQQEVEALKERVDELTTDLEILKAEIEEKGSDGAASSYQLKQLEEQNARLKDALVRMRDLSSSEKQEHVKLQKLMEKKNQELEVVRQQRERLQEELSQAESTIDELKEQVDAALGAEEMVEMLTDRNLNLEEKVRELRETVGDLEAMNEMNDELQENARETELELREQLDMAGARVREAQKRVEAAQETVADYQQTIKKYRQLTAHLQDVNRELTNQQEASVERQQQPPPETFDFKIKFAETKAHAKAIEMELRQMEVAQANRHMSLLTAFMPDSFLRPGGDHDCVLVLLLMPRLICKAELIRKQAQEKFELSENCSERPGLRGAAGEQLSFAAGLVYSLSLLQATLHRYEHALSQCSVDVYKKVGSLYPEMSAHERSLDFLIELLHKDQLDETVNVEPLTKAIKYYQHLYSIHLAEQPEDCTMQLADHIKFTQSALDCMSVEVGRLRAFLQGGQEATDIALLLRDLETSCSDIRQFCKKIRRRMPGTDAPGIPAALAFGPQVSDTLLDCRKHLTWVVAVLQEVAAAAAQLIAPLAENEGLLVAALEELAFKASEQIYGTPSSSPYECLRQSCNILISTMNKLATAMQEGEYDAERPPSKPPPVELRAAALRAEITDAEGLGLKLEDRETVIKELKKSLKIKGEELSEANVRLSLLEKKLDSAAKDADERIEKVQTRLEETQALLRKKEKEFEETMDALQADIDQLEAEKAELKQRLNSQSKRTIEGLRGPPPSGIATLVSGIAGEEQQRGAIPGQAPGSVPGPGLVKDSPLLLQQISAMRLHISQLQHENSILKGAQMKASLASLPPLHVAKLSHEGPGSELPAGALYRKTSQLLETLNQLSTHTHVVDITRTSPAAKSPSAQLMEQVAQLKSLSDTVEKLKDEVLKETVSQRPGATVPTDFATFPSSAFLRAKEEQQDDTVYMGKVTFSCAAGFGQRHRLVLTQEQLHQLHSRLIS

binding result [1]	binding result [2]	Binder
binds	binds	His-SEPT9 G domain (aa 283–586) (domain or fragment, human, UniProt Q9UHD8-1 283-586, looked up) SILEQMRRKAMKQGFEFNIMVVGQSGLGKSTLINTLFKSKISRKSVQPTSEERIPKTIEIKSITHDIEEKGVRMKLTVIDTPGFGDHINNENCWQPIMKFINDQYEKYLQEEVNINRKKRIPDTRVHCCLYFIPATGHSLRPLDIEFMKRLSKVVNIVPVIAKADTLTLEERVHFKQRITADLLSNGIDVYPQKEFDEDSEDRLVNEKFREMIPFAVVGSDHEYQVNGKRILGRKTKWGTIEVENTTHCEFAYLRDLLIRTHMQNIKDITSSIHFEAYRVKRLNEGSSAMANGMEEKEPEAPEM
binds	binds	His-SEPT9 (recombinant full-length SEPT9 isoform 1) (natural protein, human, UniProt Q9UHD8-1 1-586, looked up) MKKSYSGGTRTSSGRLRRLGDSSGPALKRSFEVEEVETPNSTPPRRVQTPLLRATVASSTQKFQDLGVKNSEPSARHVDSLSQRSPKASLRRVELSGPKAAEPVSRRTELSIDISSKQVENAGAIGPSRFGLKRAEVLGHKTPEPAPRRTEITIVKPQESAHRRMEPPASKVPEVPTAPATDAAPKRVEIQMPKPAEAPTAPSPAQTLENSEPAPVSQLQSRLEPKPQPPVAEATPRSQEATEAAPSCVGDMADTPRDAGLKQAPASRNEKAPVDFGYVGIDSILEQMRRKAMKQGFEFNIMVVGQSGLGKSTLINTLFKSKISRKSVQPTSEERIPKTIEIKSITHDIEEKGVRMKLTVIDTPGFGDHINNENCWQPIMKFINDQYEKYLQEEVNINRKKRIPDTRVHCCLYFIPATGHSLRPLDIEFMKRLSKVVNIVPVIAKADTLTLEERVHFKQRITADLLSNGIDVYPQKEFDEDSEDRLVNEKFREMIPFAVVGSDHEYQVNGKRILGRKTKWGTIEVENTTHCEFAYLRDLLIRTHMQNIKDITSSIHFEAYRVKRLNEGSSAMANGMEEKEPEAPEM
	binds	His-SEPT9 NTE domain (aa 1–283) (domain or fragment, human, UniProt Q9UHD8-1 1-283, looked up) MKKSYSGGTRTSSGRLRRLGDSSGPALKRSFEVEEVETPNSTPPRRVQTPLLRATVASSTQKFQDLGVKNSEPSARHVDSLSQRSPKASLRRVELSGPKAAEPVSRRTELSIDISSKQVENAGAIGPSRFGLKRAEVLGHKTPEPAPRRTEITIVKPQESAHRRMEPPASKVPEVPTAPATDAAPKRVEIQMPKPAEAPTAPSPAQTLENSEPAPVSQLQSRLEPKPQPPVAEATPRSQEATEAAPSCVGDMADTPRDAGLKQAPASRNEKAPVDFGYVGIDS
